Measurements: PMC10899789

What was measured:
Details in all cases: 50 mM Tris-HCl pH 7.5, 50 mM NaCl, 10 mM MgCl2; SV at 20 C, SE under same conditions (5000 rpm, 260 nm)
[1] = target: T1, p6CΔ20 del85-104 (Bacillus subtilis phage phi29) (UniProt P03685); assay: sedimentation velocity
T1 sequence: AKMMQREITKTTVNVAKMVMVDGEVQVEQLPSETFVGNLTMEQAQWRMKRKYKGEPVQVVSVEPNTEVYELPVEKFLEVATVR

[2] = target: T1, p6CΔ20 del85-104 (Bacillus subtilis phage phi29); assay: sedimentation equilibrium
[3] = target: T2, p6 wt (Bacillus subtilis phage phi29) (UniProt P03685); assay: sedimentation equilibrium
T2 sequence: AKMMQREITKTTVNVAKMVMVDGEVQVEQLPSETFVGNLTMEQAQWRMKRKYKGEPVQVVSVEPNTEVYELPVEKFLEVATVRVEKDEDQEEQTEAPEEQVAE

Sequence: GCCCACATACTTTGTTGATTGGTTGTCAATCATGGCAAAAGTGCACGCTACTTTGATAACCTTTTACATGCGACACAGACGAAGCGCTAAAACGTGGGATTCTGTGTCGTTTTATGTTGTTCATTGACAAACCTATCTAGTAGGTCTATAGATTGATATATTAAGTAGTAGTTTCCCTCCCTGATCATGGTATGCCGAGGATCGACGGATTATGTCGATATTAGGAGAATGGTATCATGTGAGGGTGGGGGCTTACTTT (double strand) [L fragment (DNA-L)]
- binding [1]: binds
- Kd [2]: 1470 nM
- Kd [3]: 2460 nM
